Common to all, as to conditions: both partners purified
Assay [1] concerns the target T1, talin-1 head domain (THD1) (UniProt P26039 1-405).
T1 construct: talin-1 (TLN1) head domain (THD), residues 1-405; murine TLN1 cDNA is named only for the cell lines; also called WT; source: E. coli (DE3) Rosetta 2, purified (IMAC, SEC); not shown: His10-SUMO, N-terminal, cleaved
Kind of assay: MST; apparent; THD1 titrated to 488–β1-CT or 488–β3-CT in the presence of 500–1,100 µM KIND2-F0; MST buffer.

The target in assay [2] is T2, THD1 I398A (UniProt P26039 1-405, I398A).
T2 construct: talin-1 (TLN1) head domain, residues 1-405, I398A; source: E. coli (DE3) Rosetta 2, purified (IMAC, SEC); not shown: His10-SUMO, N-terminal, cleaved
The assay can be described thus: MST; unlabelled protein titrated to 50-200 nM ATTO 488-labelled β-CT peptide, no third protein; 20 mM Tris pH 7.5, 200 mM NaCl, 1 mM TCEP, 0.05% Tween-20; Kd of individual titrations (in S0002 mean and sd, n = 2).

In a further assay the target is T3, THD1 KKAA (UniProt P26039 1-405, KKAA (KK402/403)).
T3 construct: the sheet prints only 'KKAA'; source: E. coli (DE3) Rosetta 2, purified (IMAC, SEC); not shown: His10-SUMO, N-terminal, cleaved
Described as above.

The target of a further assay is T4, kindlin-2 (KIND2) (UniProt Q8CIB5 1-680).
T4 construct: kindlin-2 (KIND2), recombinant; with the F1 loop and the PH domain (unlike ΔKIND2); source: E. coli Rosetta, purified (IMAC, SEC); not shown: His10-SUMO, N-terminal, cleaved
T4 sequence (looked up): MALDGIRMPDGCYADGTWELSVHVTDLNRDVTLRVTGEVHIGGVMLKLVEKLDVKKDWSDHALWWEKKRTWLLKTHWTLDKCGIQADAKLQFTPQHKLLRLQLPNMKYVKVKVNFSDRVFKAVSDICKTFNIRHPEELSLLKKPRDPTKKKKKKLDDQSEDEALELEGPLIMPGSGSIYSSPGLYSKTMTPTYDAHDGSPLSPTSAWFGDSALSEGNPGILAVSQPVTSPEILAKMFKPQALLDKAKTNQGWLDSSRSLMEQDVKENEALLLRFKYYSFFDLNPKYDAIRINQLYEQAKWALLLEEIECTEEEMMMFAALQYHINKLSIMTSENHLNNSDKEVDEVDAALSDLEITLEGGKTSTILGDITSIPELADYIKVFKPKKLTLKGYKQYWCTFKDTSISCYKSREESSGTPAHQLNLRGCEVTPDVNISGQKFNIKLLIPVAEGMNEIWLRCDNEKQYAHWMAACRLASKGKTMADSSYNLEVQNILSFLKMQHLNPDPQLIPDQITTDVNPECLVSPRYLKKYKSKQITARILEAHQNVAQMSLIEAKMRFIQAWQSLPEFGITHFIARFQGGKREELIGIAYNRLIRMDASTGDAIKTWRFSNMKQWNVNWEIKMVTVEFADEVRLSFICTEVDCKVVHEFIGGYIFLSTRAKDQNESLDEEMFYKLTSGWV
The assay can be described thus: MST; apparent; KIND2 titrated to 488–β3-CT in the presence of 120 µM THD1-K402E; MST buffer.

The target in assay [3] is T1, talin-1 head domain (THD1). Kind of assay: MST; apparent; THD1 titrated to 488–β1-CT or 488–β3-CT in the presence of 300–400 µM β-CT-binding-impaired KIND2 Q614A,W615A (QW/AA); MST buffer.
Assay [4] deals with T1, talin-1 head domain (THD1). Kind of assay: MST; apparent; THD1 titrated to 488–β3-CT in the presence of 30-40 µM KIND2-Y13A; MST buffer.
Assay [5] has as its target T2, THD1 I398A. The assay can be described thus: MST; apparent; THD1 or THD1 mutants titrated to 488–β3-CT in the presence of 30-40 µM KIND2; MST buffer.
For the next assay, the target named is T5, THD1 K404A (UniProt P26039 1-405, K404A).
T5 construct: talin-1 (TLN1) head domain, residues 1-405, K404A; source: E. coli (DE3) Rosetta 2, purified (IMAC, SEC); not shown: His10-SUMO, N-terminal, cleaved
The description is as above.

For another assay, the target named is T6, THD1 K403E (UniProt P26039 1-405, K403E).
T6 construct: talin-1 (TLN1) head domain, residues 1-405, K403E; source: E. coli (DE3) Rosetta 2, purified (IMAC, SEC); not shown: His10-SUMO, N-terminal, cleaved
Described as above.

The target in a further assay is T7, THD1 K403A (UniProt P26039 1-405, K403A).
T7 construct: talin-1 (TLN1) head domain, residues 1-405, K403A; source: E. coli (DE3) Rosetta 2, purified (IMAC, SEC); not shown: His10-SUMO, N-terminal, cleaved
The description is as above.

In assay [6] the target is T1, talin-1 head domain (THD1). Described as above.
Assay [7] deals with T1, talin-1 head domain (THD1). Kind of assay: MST; unlabelled protein titrated to 50-200 nM ATTO 488-labelled β-CT peptide, no third protein; 20 mM Tris pH 7.5, 200 mM NaCl, 1 mM TCEP, 0.05% Tween-20; Kd of individual titrations (in S0002 mean and sd, n = 2).

“And” between values parts separate entries of the source, which are not always exact repeats. Equal values may be shown once. No end group written: not given here.

T1 sequence (P26039 1-405): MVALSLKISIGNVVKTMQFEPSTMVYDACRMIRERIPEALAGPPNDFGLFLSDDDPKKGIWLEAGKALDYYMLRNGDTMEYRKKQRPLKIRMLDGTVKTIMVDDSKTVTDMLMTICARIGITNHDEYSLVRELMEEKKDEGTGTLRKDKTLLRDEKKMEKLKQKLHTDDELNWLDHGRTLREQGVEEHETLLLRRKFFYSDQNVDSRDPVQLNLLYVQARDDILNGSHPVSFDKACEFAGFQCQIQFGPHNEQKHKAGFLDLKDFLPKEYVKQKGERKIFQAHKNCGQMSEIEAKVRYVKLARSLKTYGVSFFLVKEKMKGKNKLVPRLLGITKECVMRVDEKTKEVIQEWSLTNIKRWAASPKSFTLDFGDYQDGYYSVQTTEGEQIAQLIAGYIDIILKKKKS
T2 sequence (P26039 1-405 I398A): as the sequence (P26039 1-405) above, with I398A counted along it
T5 sequence (P26039 1-405 K404A): as the sequence (P26039 1-405) above, with K404A counted along it
T3 sequence (P26039 other isoform, or with tags, fused parts or gaps KKAA (KK402/403) | KKAA (KK402/403)): as the sequence (P26039 1-405) above, with K402A, K403A counted along it
T7 sequence (P26039 1-405 K403A): as the sequence (P26039 1-405) above, with K403A counted along it
T6 sequence (P26039 1-405 K403E): as the sequence (P26039 1-405) above, with K403E counted along it

B1: ATTO 488-labeled integrin β3 cytoplasmic tail (488–β3-CT) (peptide, UniProt O54890 741-787, looked up)
peptide: {ATTO 488}-KLLITIHDRKEFAKFEEERARAKWDTANNPLYKEATSTFTNITYRGT
notes: integrin β3 cytoplasmic tail (β3-CT); source: synthetic peptide (MPIB Core Facility)
Consider B1, for which the Kd in assay [1] is 105 µM and 87.6 µM; with THD1 I398A [2], 141 µM; in the assay with THD1 KKAA, 62.1 µM; with kindlin-2 (KIND2) it was 16.4 µM and 15.8 µM and 16.7 µM; in [3], 183 µM and 137 µM and 88 µM; in assay [4], 283 µM and 241 µM and 188 µM and 159 µM. Also, the Kd with THD1 I398A [5] is 155 µM; with THD1 K404A, 116 µM; in the assay with THD1 K403E it was 116 µM; with THD1 K403A, 114 µM; in assay [6], 95 µM; in [7], 127 µM and 115 µM and 93.9 µM and 85.5 µM.

(Values after paper PMC10716038, “Talin and kindlin use integrin tail allostery and direct binding to activate integrins” (Nature Structural & Molecular Biology, 2023).)
